# Experimental data reported in US20240325555A1 (LANOVA MEDICINES, published 2024).
# B1: 124H4D11.p2.z4-Eribulin (antibody, V domains shown)
# VH: QVQLVQSGAEVVKPGASVKVSCKASGFNIKDYYMHWVRQAPGQGLEWIGWIDPENDDTEYDPKFQGRVTMTADTSTSTVYMELSSLRSEDTAVYYCAARYYAFDYWGQGTMVTVSS
# VL: DVLMTQSPLSLPVTLGQPASISCRSSQSIVHSNANTYLEWYLQRPGQSPRLLIYKVSNRFSGVPDRFSGSGSGTDFTLKISRVEAEDVGVYYCFQGSQVPPTFGQGTKLEIK
# modifications: Eribulin drug moiety conjugated; site and chain not stated
# notes: Antibody-drug conjugate of 124H4D11.p2.z4; human gamma 1/kappa
# B2: 124H4D11.p2.z4-MMAE (antibody, V domains shown)
# VH: B1 VH
# VL: B1 VL
# modifications: MMAE drug moiety conjugated; site and chain not stated
# notes: as for B1
# B3: 290F10G10.z2-Eribulin (antibody, V domains shown)
# VH: EVQLVQSGAEVKKPGASVKVSCKASGYTFTSYWIHWVRQAPGQGLEWMGTIYPGDADTRSTQKFKDRVTMTADTSTSTVYMELSSLRSEDTAVYYCARSLIHDDYDKYYFDYWGQGTTVTVSS
# VL: DIQMTQSPSSLSASVGDRVTITCKARQDINKYIAWYQQKPGKAPKLLIHYTSILQPGIPSRFSGSGSGRDYTFTISSLQPEDIATYYCLQYDYFFTFGGGTKVEIK
# modifications: Eribulin drug moiety conjugated; site and chain not stated
# B4: LM-001-LM-D01 (antibody, V domains shown)
# VH: B3 VH
# VL: B3 VL
# modifications: LM-D01 drug-linker conjugated; site and chain not stated
# B5: LM-001-LM-D03 (antibody, V domains shown)
# VH: B3 VH
# VL: B3 VL
# modifications: LM-D03 drug-linker conjugated; site and chain not stated
# Tests used:
# human LIV-1 [1] = target: T1, human LIV-1 (human, UniProt Q13433 29-755); assay: FACS, BT20/H_LIV-1 High cells
# T1 construct: whole, on cells; also called H-LIV1
# T1 sequence (looked up): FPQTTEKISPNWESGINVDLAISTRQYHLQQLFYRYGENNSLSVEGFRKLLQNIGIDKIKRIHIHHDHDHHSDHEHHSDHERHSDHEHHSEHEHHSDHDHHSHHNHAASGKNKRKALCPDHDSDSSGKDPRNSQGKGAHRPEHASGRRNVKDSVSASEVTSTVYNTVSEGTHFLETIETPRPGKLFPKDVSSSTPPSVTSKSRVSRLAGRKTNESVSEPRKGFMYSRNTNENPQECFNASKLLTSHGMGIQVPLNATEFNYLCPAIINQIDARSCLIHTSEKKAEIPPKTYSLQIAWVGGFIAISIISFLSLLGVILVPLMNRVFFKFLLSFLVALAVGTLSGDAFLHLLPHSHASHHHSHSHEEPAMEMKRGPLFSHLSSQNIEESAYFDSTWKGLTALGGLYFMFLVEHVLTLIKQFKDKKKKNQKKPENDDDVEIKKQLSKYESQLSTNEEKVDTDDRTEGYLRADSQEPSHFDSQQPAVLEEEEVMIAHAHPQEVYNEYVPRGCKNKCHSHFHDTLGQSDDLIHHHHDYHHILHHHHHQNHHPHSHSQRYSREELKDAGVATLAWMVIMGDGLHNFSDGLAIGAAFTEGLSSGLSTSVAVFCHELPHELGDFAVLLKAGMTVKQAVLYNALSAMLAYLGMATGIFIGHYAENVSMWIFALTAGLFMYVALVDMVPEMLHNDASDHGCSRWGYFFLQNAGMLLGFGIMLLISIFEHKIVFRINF
# Experimental: (§1) Cell based binding of ADC and naked of ADC on human LIV-1 expressing cells were assessed using flow cytometry. Briefly, HEK293/H_LIV-1, both low- and high-expressing H-LIV1-positive cell lines were incubated with ADC and naked of ADC (from 100 nM, 6 folds dilution, 8 points), respectively. After incubation at 4° C. for 60 minutes, the cells were washed with FACS buffer twice, then stained with fluorescent conjugated secondary antibody at 4° C. for 30 minutes. After that the cells were washed twice and analyzed by flow cytometry.
# human LIV-1 [2] = target: T1, human LIV-1; assay: cell-based or functional assay
# human LIV-1 [3] = target: T1, human LIV-1; assay: FACS, BT20/H_LIV-1 Low cells
# Experimental: as §1
# human LIV-1 [4] = target: T1, human LIV-1; assay: FACS, HEK293/H_LIV-1 cells
# Experimental: as §1
# human LIV-1 [5] = target: T1, human LIV-1; assay: cell-based or functional assay; remark: listed apart in the source
Binder,EC50 (human LIV-1 [1]),Top (MFI) (human LIV-1 [1]),"Min cell viability %, BT20/H_LIV-1 High (human LIV-1 [2])","Min cell viability %, BT20/H_LIV-1 Low (human LIV-1 [2])","Min cell viability %, HEK293/H_LIV-1 (human LIV-1 [2])",EC50 (human LIV-1 [3]),Top (MFI) (human LIV-1 [3]),EC50 (human LIV-1 [4]),Top (MFI) (human LIV-1 [4]),"Bottom (% viability), BT20/H_LIV1-High expression (human LIV-1 [5])","Bottom (% viability), BT20/H_LIV1-Low expression (human LIV-1 [5])"
B1,0.1 nM,19200 MFI,20.7%,37.9%,21.5%,0.05 nM,3100 MFI,0.1 nM,19400 MFI,–,–
B2,0.11 nM,20000 MFI,18.6%,40.3%,15.8%,0.07 nM,3420 MFI,0.08 nM,20200 MFI,–,–
B3,1.2 nM,21000 MFI,17.6%,38.4%,18.4%,1.14 nM,3620 MFI,0.55 nM,18800 MFI,–,–
B4,–,–,–,–,–,–,–,–,–,37.9%,48.4%
B5,–,–,–,–,–,–,–,–,–,19.5%,46.9%
